From article PMC4776142, “Comparative evaluation of p5+14 with SAP and peptide p5 by dual-energy SPECT imaging of mice with AA amyloidosis” (Scientific Reports, 2016)

Tests used:
[1] = molecular target: T1, AA amyloid in H2/IL-6 mice (Mus musculus, UniProt P05367); assay: Dual-energy tissue biodistribution of 125I-SAP and 99mTc-p5+14 in AA mice; format: in vivo
T1 construct: Systemic distribution of AA amyloid in H2/IL-6 mice; from tissue; host or cells: organs of living H2/IL-6 Balb/c mice after induction with amyloid enhancing factor
T1 sequence (P05367 20-94 limits assumed): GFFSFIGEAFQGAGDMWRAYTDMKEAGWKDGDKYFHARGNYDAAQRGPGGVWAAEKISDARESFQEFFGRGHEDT
Protocol: Transgenic H2-L^d-huIL-6 Balb/c mice (H2/IL-6) constitutively express the human IL-6 transgene leading to chronic, severe inflammation and the overproduction of acute phase reactants, such as serum amyloid protein A, the precursor protein of systemic, inflammation-associated (AA) amyloidosis. Amyloid deposition was induced in 8–wk old female mice by IV injection of 100 μg of amyloid enhancing factor (AEF – an insoluble preparation of amyloid fibrils isolated from the spleen of mice with AA amyloidosis) suspended in sterile phosphate buffered saline (PBS)[34]. All animal procedures were performed in accordance with protocols approved by the University of Tennessee Animal Care and Use Committee. The University of Tennessee is an Association for Assessment and Accreditation of Laboratory Animal Care International (AAALAC-I) accredited institution.
(§1) Dual-energy comparative uptake experiments were performed in individual AA mice (5 wk post amyloid induction with AEF) and wild type mice (n = 5 per group). All SPECT/CT imaging was performed using an Inveon trimodality SPECT/PET/CT platform[37] (Siemens preclinical, Knoxville, TN). Image data were acquired and reconstructed using Inveon Acquisition Workplace (IAW) ver. 2.0.
For the comparison of ^125I-SAP and ^99mTc-p5+14, mice were administered ^125I-SAP (45 μCi, 8 μg) and 20 h thereafter received ^99mTc-p5+14 (110 μCi, 5 μg). Mice were euthanised 4 h after injection of the ^99mTc-p5+14. The image data for the low and high energy radionuclides were obtained sequentially by acquiring 60, 16-second projections in a total of 1.5 revolutions. A 1 mm-diameter aperture, five-pinhole (mouse whole body) collimator was used at 30 mm from the centre of the field of view. The image data in the appropriate energy window were reconstructed using a Maximum A Priori algorithm (MAP - 16 iterations, 6 subsets, β = 1) onto a matrix with x and y dimensions of 88 and z dimension of 312 and 0.5-mm isotropic voxels. Post hoc attenuation correction was then applied to reconstructed data using CT image data. Scatter correction was performed using a SPECT triple energy window (TEW) method.
(§2) For comparison of the p5+14 and p5 peptides, mice were injected IV in the lateral tail vein with a mixture of ^125I-p5+14 (150 μCi, ~3 μg) and ^99mTc-p5 (300 μCi, ~8 μg) and the mice euthanised by an overdose of isoflurane anaesthetic 1 h post injection. Tissues were harvested at necropsy for biodistribution measurements. Organs were also harvested from mice injected with ^125I-SAP and ^99mTc-p5+14 after SPECT/CT imaging. A small volume of tissue from each mouse was placed into a tared plastic vial and weighed. The radioactivity in the low and high energy windows (^125I and ^99mTc, respectively) was measured using an automated Wizard 3 gamma counter (1480 Wallac Gamma Counter, Perkin Elmer) with a crossover correction from the high to low energy channel of 4.6%, applied manually. Biodistribution data were expressed as percent injected dose per gram (%ID/g) of tissue.
Skewness and kurtosis statistics were used to assess the statistical assumption of normality for between-subjects comparisons and correlations. Any skewness or kurtosis statistic above an absolute value of 2.0 assumed a non-normal distribution. The assumption of homogeneity of variance was tested with Levene’s Test of Equality of Variances. Independent samples t-tests were used to compare p5+14 and SAP retention in amyloid laden organs (liver, spleen, pancreas, intestines and heart). Means and standard deviations were reported for the analyses. If a statistical assumption was violated, a non-parametric Mann-Whitney U test was used. Medians and interquartile ranges (IQR) were reported for non-parametric statistics. Pearson correlations were run to compare tissue biodistribution data (%ID/g) in all organs. […]

[2] = tested on: amyloid-free organs of WT mice; assay: Dual-energy tissue biodistribution in amyloid-free WT mice; format: in vivo, mouse; details: n = 5, SAP 24 h and p5+14 4 h post injection
Protocol: as §1
For the comparison of ^125I-SAP and ^99mTc-p5+14, mice were administered ^125I-SAP (45 μCi, 8 μg) and 20 h thereafter received ^99mTc-p5+14 (110 μCi, 5 μg). Mice were euthanised 4 h after injection of the ^99mTc-p5+14. The image data for the low and high energy radionuclides were obtained sequentially by acquiring 60, 16-second projections in a total of 1.5 revolutions. […]
as §2, with “Tissues were harvested at necropsy for biodistribution measurements. Organs were also harvested from mice injected with ^125I-SAP and ^99mTc-p5+14 after SPECT/CT imaging. A small volume of tissue from each mouse was placed into a tared plastic vial and weighed.” left out

[3] = AA mice 5 wk post-AEF, n = 5, 125I-SAP 45 μCi, 8 μg, 24 h post injection, crossover-corrected

125I-SAP: purified human SAP radioiodinated with 125I
Tissue biodistribution, heart, Mean ± SD [1, 3]: 0.7 ± 0.1 %ID/g | Tissue biodistribution, intestine, Mean ± SD [1, 3]: 0.8 ± 1.1 %ID/g | Tissue biodistribution, liver, Mean ± SD [1, 3]: 14.1 ± 3.5 %ID/g | Tissue biodistribution, pancreas, Median (Interquartile range) [1, 3]: 0.7 (0.5)[3] %ID/g | Tissue biodistribution, spleen, Mean ± SD [1, 3]: 23.8 ± 3.5 %ID/g | Uptake in the spleen as compared to 99mTc-p5+14 ([1]; AA mice, in each mouse studied, p < 0.001): ~ 4 fold | Uptake by pancreatic AA amyloid ([1]; AA mice, 125I-SAP, 24 h post injection): < 1 %ID/g | Retention in amyloid-free organs [2]: no retention
